# What was measured:
# HLA-A*26:02 [1] = experiment: IEDB peptide-MHC binding, purified MHC/direct/fluorescence; filed as Kd, often an IC50 or EC50 that approximates it; ≥ and ≤ were set here for values at or beyond the usual limits of such assays; details: source organism: Yellow fever virus
# HLA-A*80:01 = experiment: as above
# HLA-A*01:01 = experiment: as above
# HLA-A*02:01 [2] = experiment: as above; details: source organism: Mycobacterium tuberculosis
# HLA-A*11:01 = experiment: as above
# HLA-A*31:01 = experiment: as above
# HLA-A*68:02 = experiment: as above
# HLA-A*69:01 = experiment: as above
# HLA-B*07:02 = experiment: as above
# HLA-B*08:01 = experiment: as above
# HLA-B*08:02 = experiment: as above
# HLA-B*08:03 = experiment: as above; details: source organism: Mycobacterium tuberculosis str. Haarlem
# HLA-B*15:17 [3] = experiment: as above; details: source organism: Mycobacterium tuberculosis
# HLA-B*27:05 [4] = experiment: as above; details: source organism: Mycobacterium tuberculosis
# HLA-B*40:01 = experiment: as above; details: source organism: Mycobacterium tuberculosis
# HLA-B*46:01 = experiment: as above
# HLA-B*48:01 = experiment: as above
# HLA-B*57:01 = experiment: as above
# HLA-B*58:01 = experiment: as above
# HLA-A*02:06 = experiment: IEDB peptide-MHC binding, purified MHC/competitive/fluorescence; filed as Kd, often an IC50 or EC50 that approximates it; ≥ and ≤ were set here for values at or beyond the usual limits of such assays; details: source organism: Mycobacterium tuberculosis variant bovis BCG str. Pasteur 1173P2
# HLA-A*26:02 [5] = experiment: as above
# HLA-A*26:03 = experiment: as above; details: source organism: Mycobacterium tuberculosis variant bovis BCG str. Pasteur 1173P2
# HLA-B*15:01 [6] = experiment: as above; details: source organism: Mycobacterium tuberculosis variant bovis BCG str. Pasteur 1173P2
# HLA-B*18:01 [7] = experiment: as above; details: source organism: Mycobacterium tuberculosis variant bovis BCG str. Pasteur 1173P2
# HLA-B*14:02 = experiment: IEDB peptide-MHC binding, purified MHC/direct/fluorescence; filed as Kd, often an IC50 or EC50 that approximates it; ≥ and ≤ were set here for values at or beyond the usual limits of such assays; details: source organism: Homo sapiens
# HLA-A*03:01 = experiment: as above; details: source organism: Mycobacterium tuberculosis
# HLA-A*26:01 [8] = experiment: as above; details: source organism: Mycobacterium tuberculosis str. Haarlem
# HLA-B*15:01 [9] = experiment: as above
# HLA-B*18:01 [10] = experiment: as above; details: source organism: Mycobacterium tuberculosis
# HLA-B*51:01 = experiment: as above; details: source organism: Mycobacterium tuberculosis
# HLA-B*15:09 = experiment: IEDB peptide-MHC binding, purified MHC/competitive/fluorescence; filed as Kd, often an IC50 or EC50 that approximates it; ≥ and ≤ were set here for values at or beyond the usual limits of such assays
# HLA-B*39:01 = experiment: as above
# HLA-C*07:02 = experiment: IEDB peptide-MHC binding, purified MHC/direct/fluorescence; filed as Kd, often an IC50 or EC50 that approximates it; ≥ and ≤ were set here for values at or beyond the usual limits of such assays; details: source organism: Variola virus
# HLA-A*02:01 [11] = experiment: IEDB peptide-MHC binding, purified MHC/competitive/fluorescence; filed as Kd, often an IC50 or EC50 that approximates it; ≥ and ≤ were set here for values at or beyond the usual limits of such assays; details: source organism: Variola virus
# HLA-A*26:01 [12] = experiment: as above; details: source organism: Variola virus
# HLA-B*15:17 [13] = experiment: as above; details: source organism: Variola virus
# HLA-B*27:05 [14] = experiment: as above; details: source organism: Variola virus
# HLA-B*15:03 = experiment: IEDB peptide-MHC binding, purified MHC/competitive/radioactivity; filed as Kd, often an IC50 or EC50 that approximates it; ≥ and ≤ were set here for values at or beyond the usual limits of such assays; details: source organism: Vaccinia virus WR
# [15] = source organism: Camelpox virus CMS
# [16] = source organism: Mycobacterium tuberculosis
# [17] = source organism: Mycobacterium tuberculosis str. Haarlem
# [18] = source organism: Mycobacterium tuberculosis C
# [19] = source organism: Camelpox virus M-96
sequence,measurement,setting,value
EVDQTKIQY,Kd,HLA-A*26:02 [1],1.61 µM
same,Kd,HLA-A*80:01; source organism: Yellow fever virus,≥ 20 µM
ITDFNIDTY,Kd,HLA-A*01:01; [15],≤ 0.001 µM
same,Kd,HLA-A*80:01; [15],0.307 µM
KVMVICYAY,Kd,HLA-A*01:01; [16],11.8 µM
same,Kd,HLA-A*02:01 [2],≥ 20 µM
same,Kd,HLA-A*11:01; [16],0.492 µM
same,Kd,HLA-A*31:01; [16],4.16 µM
same,Kd,HLA-A*68:02; [16],≥ 20 µM
same,Kd,HLA-A*69:01; [16],≥ 20 µM
same,Kd,HLA-B*07:02; [16],≥ 20 µM
same,Kd,HLA-B*08:01; [17],≥ 20 µM
same,Kd,HLA-B*08:02; [17],≥ 20 µM
same,Kd,HLA-B*08:03,≥ 20 µM
same,Kd,HLA-B*15:17 [3],6.9 µM
same,Kd,HLA-B*27:05 [4],≥ 20 µM
same,Kd,HLA-B*40:01,≥ 20 µM
same,Kd,HLA-B*46:01; [16],≥ 20 µM
same,Kd,HLA-B*48:01; [16],≥ 20 µM
same,Kd,HLA-B*57:01; [16],≥ 20 µM
same,Kd,HLA-B*58:01; [16],0.705 µM
same,Kd,HLA-A*02:06,≥ 20 µM
same,Kd,HLA-A*26:02 [5]; source organism: Mycobacterium tuberculosis variant bovis BCG str. Pasteur 1173P2,≥ 20 µM
same,Kd,HLA-A*26:03,≥ 20 µM
same,Kd,HLA-B*15:01 [6],≥ 20 µM
same,Kd,HLA-B*18:01 [7],3.29 µM
LQRIHAEI,Kd,HLA-B*14:02,0.133 µM
RPAPATGAL,Kd,HLA-A*01:01; [16],≥ 20 µM
same,Kd,HLA-A*02:01 [2],≥ 20 µM
same,Kd,HLA-A*03:01,≥ 20 µM
same,Kd,HLA-A*11:01; [16],≥ 20 µM
same,Kd,HLA-A*26:01 [8],≥ 20 µM
same,Kd,HLA-A*31:01; [16],≥ 20 µM
same,Kd,HLA-A*69:01; [16],0.739 µM
same,Kd,HLA-B*08:01; [17],≥ 20 µM
same,Kd,HLA-B*08:02; [17],≥ 20 µM
same,Kd,HLA-B*15:01 [9]; [16],≥ 20 µM
same,Kd,HLA-B*15:17 [3],≥ 20 µM
same,Kd,HLA-B*18:01 [10],≥ 20 µM
same,Kd,HLA-B*27:05 [4],≥ 20 µM
same,Kd,HLA-B*40:01,≥ 20 µM
same,Kd,HLA-B*46:01; [16],≥ 20 µM
same,Kd,HLA-B*48:01; [16],≥ 20 µM
same,Kd,HLA-B*51:01,≥ 20 µM
same,Kd,HLA-B*57:01; [16],≥ 20 µM
same,Kd,HLA-B*58:01; [16],≥ 20 µM
same,Kd,HLA-B*15:09; [18],0.0786 µM
same,Kd,HLA-B*39:01; [18],0.0042 µM
SQIETGTPF,Kd,HLA-A*01:01; [19],≥ 20 µM
same,Kd,HLA-A*11:01; [19],≥ 20 µM
same,Kd,HLA-A*31:01; [19],≥ 20 µM
same,Kd,HLA-A*68:02; [19],≥ 20 µM
same,Kd,HLA-A*69:01; [19],≥ 20 µM
same,Kd,HLA-B*07:02; [19],≥ 20 µM
same,Kd,HLA-B*08:01; source organism: Variola virus,≥ 20 µM
same,Kd,HLA-B*08:02; source organism: Variola virus,≥ 20 µM
same,Kd,HLA-B*15:01 [9]; [19],0.014 µM
same,Kd,HLA-B*46:01; [19],3.06 µM
same,Kd,HLA-B*48:01; [19],1.65 µM
same,Kd,HLA-B*57:01; [19],≥ 20 µM
same,Kd,HLA-B*58:01; [19],≥ 20 µM
same,Kd,HLA-C*07:02,≥ 20 µM
same,Kd,HLA-A*02:01 [11],≥ 20 µM
same,Kd,HLA-A*26:01 [12],1.79 µM
same,Kd,HLA-A*26:02 [5]; source organism: Variola virus,0.0008 µM
same,Kd,HLA-B*15:09; source organism: Variola virus,0.0673 µM
same,Kd,HLA-B*15:17 [13],≥ 20 µM
same,Kd,HLA-B*27:05 [14],≥ 20 µM
same,Kd,HLA-B*39:01; source organism: Variola virus,0.0146 µM
same,Kd,HLA-B*15:03,0.00133 µM
